Laboratory results from article PMC11374702, “Structural basis of the Meinwald rearrangement catalysed by styrene oxide isomerase” (Nature Chemistry, 2024).

Target: styrene oxide isomerase (SOI), Pseudomonas sp. VLB120, wild type (Pseudomonas sp. VLB120, UniProt O50216)
Assay: cell-based or functional assay

catalytic efficiency (kcat/KM) for (S)-styrene oxide of the SOI–NB complex compared to the wild-type enzyme, coupled enzyme assay with EcALDH: 3 fold
B1: nanobody (NB) raised against SOI, used for structure determination (VHH)
VHH: QGQLVESGGGLVQAGGSLRLSCTGSGRAFVTPAVGWFRQAPGKEREFVGTINWSGSHTSYADPVKGRFTISRDNAKETVYLQMNNLKPEDADVYYCASRGVSGRYEYWGKGTPVTVSS
